pIC50, pKd: −log10 of the molar value.
Tests used:
[1] = target: T1, thrombin (native human beta-thrombin) (Homo sapiens) (UniProt P00734+P00734); assay: EMSA; conditions: for pKd: selection buffer, 10% glycerol, room temperature; for binding signal: 1 uM thrombin
[2] = target: thrombin (native bovine alpha-thrombin) (Bos taurus) (UniProt P00735+P00735); assay: ITC; conditions: L-DNA (all nucleotides)
[3] = target: T1, thrombin (native human beta-thrombin) (Homo sapiens); assay: ITC; conditions: L-DNA (all nucleotides); physiological buffer pH 7.4, 25 C
[4] = target: T1, thrombin (native human beta-thrombin) (Homo sapiens); assay: inhibition; conditions: L-DNA (all nucleotides); R0 pool, no inhibition up to 8 uM

Q: “ACGGAACGCGTTTCAAGACTACCGTGTTTGTTCCGT [Cy5-L-9-1t aptamer]” was tested. Which pKd ([1]; L-DNA (all nucleotides)) did it give?
A: The pKd was 7.68.

Q: How did the pKd ([2]; ~26-fold weaker than human thrombin) turn out when “ACGGAACGCGTTTCAAGACTACCGTGTTTGTTCCGT [L-9-1t aptamer]” was run?
A: The pKd was 5.99.

Q: And the pKd [3]?
A: The pKd was 7.41.

Q: How did the pKd [3] turn out when “CGGATCCAGTTACGGAACGCGTTTCAAGACTACCGTGTTTGTTCCGTTCATTCAGTAAGCTTCGG [L-9-1 aptamer]” was run?
A: Its pKd is 7.54.

Q: How did the pIC50 [4] turn out when “CGGATCCAGTTACGGANNNNNNNNNNNNNNNNNNNNNNNNNNNNNNTTCATTCAGTAAGCTTCGG [R0 L-DNA library pool]” was run?
A: The pIC50 was under 5.10.

Q: For “CGGATCCAGTTACGGANNNNNNNNNNNNNNNNNNNNNNNNNNNNNNTTCATTCAGTAAGCTTCGG [R6 D-DNA pool]”, which binding signal [1] is on record?
A: The binding signal was 70 % bound.

Q: How did the binding signal ([1]; L-DNA (all nucleotides), 200 nM pool) turn out when “CGGATCCAGTTACGGANNNNNNNNNNNNNNNNNNNNNNNNNNNNNNTTCATTCAGTAAGCTTCGG [R9 L-DNA pool]” was run?
A: Its binding signal is 70 % bound.

Q: How did the pKd [3] turn out when “CGGATCCAGTTACGGATGAACTTGTTGAAACCCAACGGGAGAATCGTTCATTCAGTAAGCTTCGG [L-9-2 aptamer]” was run?
A: The pKd was 6.77.

Q: How did the pKd [3] turn out when “CGGATCCAGTTACGGATGAACTTGTTGAAACCCAACGGGAGCCTCGTTCATTCAGTAAGCTTCGGTGG [L-13 aptamer]” was run?
A: The pKd was 7.66.

Q: How did the pKd ([1]; L-DNA (all nucleotides)) turn out when “GATGAACTTGTTGAAACCCAACGGGAGAATCGTTCATT [Cy5-L-9-2t aptamer]” was run?
A: Its pKd is 6.45.

Q: What does the source list for “GATGAACTTGTTGAAACCCAACGGGAGAATCGTTCATT [L-9-2t aptamer]”?
A: pKd ([2]; ~1.7-fold weaker than human thrombin): 6.37; pKd [3]: 6.60

Q: How did the pKd ([1]; L-DNA (all nucleotides)) turn out when “GATGAACTTGTTGAAACCCAACGGGAGCCTCGTTCATT [Cy5-L-13t aptamer]” was run?
A: The pKd was 7.55.

Q: “GATGAACTTGTTGAAACCCAACGGGAGCCTCGTTCATT [L-13t aptamer]” was tested. Which pKd [3] did it give?
A: The pKd was 7.47.
